Measured values published in patent US20240279334A1 (AMBERSTONE BIOSCIENCES, published 2024).
Changes are numbered by the printed parent chain.

Columns and labels:
[1] = biological target: human CD3 on T cells (Jurkat reporter cells, human primary T cells) (human) (UniProt P07766); experiment: cell-based or functional assay
[2] = biological target: T1, recombinant human CD3E (ECD) (human, UniProt P07766 23-126); experiment: ELISA with human CD3E; % Binding plotted against pH (6.0 to 7.4), relative to pH 6.0; Fab concentration not shown on the sheet
T1 construct: extracellular domain; This is the coated antigen of the ELISA; also called extracellular domain of human CD3E
Method: (§1) The plates were then blocked with 200 μL ELISA assay diluents with BSA after discarding the coating solution and washing three times with washing buffer (pH-adjusted 1×PBS+0.05% Tween). […] The plates were washed three times with pH-adjusted 1×PBS buffer and incubated with horseradish peroxidase (HRP) conjugated with goat anti-human IgG Fc for about 30 minutes (min) to one hour. After washing three times, the bound HRP enzyme was detected by addition of 100 μL/well […] substrate (BioFX Laboratories, MD, USA) for about 1 to 5 min and then the detection of color was done based on 630 nm absorption. The pH-adjusted 1×PBS buffer of about pH 6.0, 6.1, 6.2, 6.3, 6.4, 6.5, 6.6, 6.7, 6.8, 6.9, 7.0, 7.1, 7.2, 7.3, 7.4, 7.5 or 7.6 can be based on a regular PBS buffer that is substantially the same as the well-known Cold Spring Harbor Lab's recipe which comprises 137 mM NaCl, 2.7 mM KCl, 10 mM Na₂HPO₄, 1.8 mM KH₂PO₄, and optionally 1 mM CaCl₂) and 0.5 mM MgCl₂, wherein the buffer's pH is adjusted using HCl or H₃PO₄. Alternatively, the pH-adjusted 1×PBS buffers can be based on a modified PBS recipe that comprises 118-146 mM NaCl, 2.7 mM KCl, 10 mM Na₂HPO₄, 1.8 mM KH₂PO₄, and optionally 1 mM CaCl₂) and 0.1-0.8 mM MgCl₂, iron (0-9 mM), sulfide (0.8-5 mM), and optionally further comprising one or more components selected from the following: 5-15 mM D-glucose, NaHCO₃(5-20 mM), 0.1 mM NEAA (non-essential amino acids), 2-20 mM lactic acid and 0.1-0.5% BSA, wherein the buffer's pH is adjusted using HCl or H₃PO₄.

[3] = biological target: T2, extracellular domain of cynomolgus monkey CD3E (cynomolgus monkey, UniProt Q95LI5 22-117); experiment: ELISA with monkey CD3E; % Binding plotted against pH (6.0 to 7.4), relative to pH 6.0; Fab concentration not shown on the sheet
T2 construct: extracellular domain; This is the coated antigen of the ELISA; also called cyno CD3
T2 sequence (looked up): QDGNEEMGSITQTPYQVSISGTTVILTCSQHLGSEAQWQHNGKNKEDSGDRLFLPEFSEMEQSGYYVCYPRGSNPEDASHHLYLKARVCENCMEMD
Method: as §1, with “Alternatively, the pH-adjusted 1×PBS buffers can be based on a modified PBS recipe that comprises 118-146 mM NaCl, 2.7 mM KCl, 10 mM Na₂HPO₄, 1.8 mM KH₂PO₄, and optionally 1 mM CaCl₂) and 0.1-0.8 mM MgCl₂, iron (0-9 mM), sulfide (0.8-5 mM), and optionally further comprising one or more components selected from the following: 5-15 mM D-glucose, NaHCO₃(5-20 mM), 0.1 mM NEAA (non-essential amino acids), 2-20 mM lactic acid and 0.1-0.5% BSA, wherein the buffer's pH is adjusted using HCl or H₃PO₄.” left out

T1 sequence (P07766 23-126): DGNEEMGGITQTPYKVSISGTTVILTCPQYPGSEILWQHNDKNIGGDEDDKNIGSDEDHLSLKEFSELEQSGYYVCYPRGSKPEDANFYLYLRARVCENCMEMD
Chain of human CD3 on T cells (Jurkat reporter cells, human primary T cells) (human) (P07766 23-207): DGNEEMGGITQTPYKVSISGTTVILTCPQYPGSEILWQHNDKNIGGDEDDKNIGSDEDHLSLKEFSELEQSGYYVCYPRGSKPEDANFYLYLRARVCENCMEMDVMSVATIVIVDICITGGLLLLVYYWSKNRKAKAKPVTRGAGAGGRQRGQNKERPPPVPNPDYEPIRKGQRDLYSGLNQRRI

B1: CD3(h10.v39)×TROP-2(RS7.v1) assembled in a human IgG1-Fc (Knobs-in-Holes) (bispecific antibody, not shown: a dimerising Fc or GST)
heavy: EVQLVQSGAEVKKPGASVKVSCKASGYTFTSYYTHWVRQAPGQGLEWIGWIYPGDFNTKFNEKFKGRVTLTADTSASTAYMELSSLRSEDTAVYYCARDHYGYYYFDYWGQGTLVTVSS
light: DIVMTQSPDSLAVSLGERATINCKSSQSLLNSRTRHNYLAWYQQKPGQPPKLLIYWATTRASGVPDRFSGSGSGTDFTLTISSLQAEDVAVYYCIQSYTGRTFGGGTKVEIK
VH: EVQLQQSGSELKKPGASVKVSCKASGYTFTNYGMNWVKQAPGQGLKWMGWINTYTGEPTYTDDFKGRFAFSLDTSVSTAYLQISSLKADDTAVYFCARGGFGSSYWYFDVWGQGSLVTVSS
VL: DIQLTQSPSSLSASVGDRVSITCKASQDVSIAVAWYQQKPGKAPKLLIYSASYRYTGVPDRFSGSGSGTDFTLTISSLQPEDFAVYYCQQHYITPLTFGAGTKVEIK
B1 gave a percent killing of MDA-MB-468 cells at the pH 6.6 ECmax dose, pH 7.4 [1] of 16% and a percent killing of TROP-2-high MDA-MB-468 cells, pH 6.6 [1] of 100%.

B2: CD3 (h10.v38)×TROP-2 (RS7.v1) hIgG1-Fc (KiH) (bispecific antibody, not shown: a dimerising Fc or GST)
heavy: B1 heavy with T34Y
light: B1 light
VH: B1 VH
VL: B1 VL
Work on B2 yielded a T cell mediated killing of DU-145 cells, EC50, pH 6.9 [1] of 144 nM, a T cell mediated killing of MDA-MB-468 cells, EC50, pH 6.6 [1] of 0.3 nM and a T cell mediated killing of MDA-MB-468 cells, EC50, pH 7.0 [1] of 9 nM. It also gave a T cell mediated killing of MDA-MB-468 cells, ECmax, pH 6.6 [1] of 30 nM and a fold reduction of MDA-MB-468 killing potency with human PBMCs (E:T about 5.5:1), pH 7.4 against pH 6.6 [1] of 80 fold.

B3: h10.v38 (Fab) (Fab, V domains shown)
VH: B1 heavy with T34Y
VL: B1 light
notes: Tested as a Fab
B3: binds [2].

B4: h10.v1 (Fab) (Fab, V domains shown)
VH: B1 heavy with T34V, H100A, G102S
VL: B1 light with H36K, A61D, G100T
notes: Tested as a Fab; the Fab constant domains are not; also called non-pH-selective conventional control clone; conventional anti-CD3 control antibody
B4: binds [2]; binds [3].

B5: h10.v23 (Fab) (Fab, V domains shown)
VH: B1 heavy with T34V
VL: B1 light
notes: Purified and used as a Fab; also called anti-CD3 clone h10.v23
B5: binds [2].

B6: h10.v27 (Fab) (Fab, V domains shown)
VH: B1 heavy with T34Y
VL: B1 light with A61D
notes: Tested as a Fab
B6: binds [2].

B7: h10.v49 (Fab) (Fab, V domains shown)
VH: B1 heavy with T34Y, G102H, Y103Q
VL: B1 light
notes: Tested as a Fab
B7: binds [2].
